Data taken from patent publication US20260109758A1 (BIOSION, published 2026).

Tests used:
[1] = molecular target: T1, recombinant human TSLP-his (human, UniProt Q969D9 29-159, biotin-labeled in the ELISAs); assay: SPR Biacore; TSLP-his amine-coupled to CM5 chip, antibody as analyte; 1:1 Langmuir fit
T1 construct: In-house made; not shown: His tag at the C-terminus
Protocol: Un-reacted moieties on the biosensor surface were blocked with ethanolamine. Then, serially diluted purified bispecific antibodies and the controls (2-fold serial dilution in HBS-EP⁺ buffer starting at 100 nM) were respectively flowed onto the chip at a flow rate of 30 μL/min. The antigen-antibody association kinetics was followed for 4 minutes and the dissociation kinetics was followed for 13 minutes.

[2] = molecular target: T2, recombinant human IL4Rα-his (human, UniProt P24394 26-231, limits assumed, biotin-labeled in the capture ELISA); assay: capture ELISA: antibody captured on anti-human IgG Fc F(ab')2, biotin human IL4Rα-his, SA-HRP
T2 construct: In-house made; not shown: His tag at the C-terminus
Protocol: Briefly, 96-well plates were coated with 2 μg/mL AffiniPure F(ab′)₂ Fragment Goat Anti-Human IgG, Fey fragment specific (Jackson Immuno Research, Cat #109-006-008) in PBS, 100 μL/well, overnight at 4° C. Plates were washed once with wash buffer (PBS+0.05% w/v Tween-20, PBST) and then blocked with 200 μL/well blocking buffer (5% w/v non-fatty milk in PBST) for 2 hours at 37° C. […] After a final wash, plates were incubated with 100 μL/well ELISA substrate TMB (Innoreagents, Cat #TMB-S-002). The reaction was stopped in 10 minutes at 25° C. with 50 μL/well 1M H₂SO₄, and the absorbance was read on a microplate reader using dual wavelength mode with 450 nm for TMB and 630 nm as the reference wavelength. Data was analyzed using Graphpad Prism and EC₅₀ values were reported.

[3] = molecular target: T2, recombinant human IL4Rα-his; assay: SPR Biacore T200; antibody captured on anti-human IgG CM5 chip, IL4Rα-his as analyte; 1:1 Langmuir fit
Protocol: The goat anti-human IgG (GE healthcare, Cat #BR100839, Human Antibody Capture Kit) was covalently linked to a CM5 chip (carboxy methyl dextran coated chip) via primary amines, using a standard amine coupling kit provided by Biacore (GE healthcare, Pittsburgh, PA, USA). Un-reacted moieties on the biosensor surface were blocked with ethanolamine. Then, purified bispecific antibodies of the disclosure at the concentration of 66.67 nM and the controls at 10 μg/mL, were flowed onto the chip at a flow rate of 10 μL/min. Then, serially diluted recombinant human IL4Rα-his (in house made, IL4Rα of SEQ ID NO: 33 with His tag at C-terminus) in HBS EP buffer (provided by Biacore) was flowed onto the chip at a flow rate of 30 μL/min. The association and dissociation curves were fit to a 1:1 Langmuir binding model using BIAcore evaluation software.

[4] = molecular target: T2, recombinant human IL4Rα-his; assay: dual-binding ELISA: coated human IL4Rα-his, antibody titrated, detection with biotin human TSLP-his and SA-HRP; signal needs both antigens bound
Protocol: For the dual-binding ELISA, 96-well ELISA plates were firstly coated with 100 μL 1 μg/mL human IL4Rα-his protein (IL4Rα of SEQ ID NO: 33 with His tag at C terminus, prepared in-house) in PBS overnight at 4° C. ELISA plates were washed 4 times with wash buffer (PBS+0.05% Tween-20, PBST) and then blocked with 200 μL/well blocking buffer (5% w/v non-fatty milk in PBST) for 2 hours at 37° C. […] ELISA plates were washed again and incubated with SA-HRP (100 μl/well) for 40 minutes at 37° C. After the final wash, 100 μL/well TMB (Innoreagents) was added. The reaction was stopped 15 minutes later at room temperature with 50 μL/well 1M H₂SO₄, and the absorbance was read on a microplate reader using dual wavelength mode with 450 nm for TMB and 630 nm as the reference wavelength. The OD (450-630) values were plotted against antibody concentration. Data was analyzed using Graphpad Prism and EC₅₀ values were reported.

Row | Binder | Kd [1] [nM] | koff [1] [s⁻¹] | kon [1] [M⁻¹ s⁻¹] | EC50 [2] [nM] | Kd [3] [nM] | koff [3] [s⁻¹] | kon [3] [M⁻¹ s⁻¹] | EC50 [4] [nM]
1 | BSI-502-005 (bispecific antibody, human IgG1, kappa, hu1C5F12E9-V8 IgG with an anti-IL4R scFv (VH-VL) at the C-terminus of the heavy chain; AQQ and YTE already stand in the entry) heavy: QVQLVQSGAEVKKPGASVKVSCKASGYTFTTYWMHWVRQAPGQGLEWMGVIDPSDSDTTYNQKFKGRVTMTRDTSTSTVYMELSSLRSEDTAVYYCTRSLDGYYDYWGQGTLVTVSSASTKGPSVFPLAPSSKSTSGGTAALGCLVKDYFPEPVTVSWNSGALTSGVHTFPAVLQSSGLYSLSSVVTVPSSSLGTQTYICNVNHKPSNTKVDKKVEPKSCDKTHTCPPCPAPEAQGGPSVFLFPPKPKDTLYITREPEVTCVVVDVSHEDPEVKFNWYVDGVEVHNAKTKPREEQYNSTYRVVSVLTVLHQDWLNGKEYKCQVSNKALPAPIEKTISKAKGQPREPQVYTLPPSRDELTKNQVSLTCLVKGFYPSDIAVEWESNGQPENNYKTTPPVLDSDGSFFLYSKLTVDKSRWQQGNVFSCSVMHEALHNHYTQKSLSLSPGKGGGGSGGGGSEVQLVESGGGLVQPGGSLRLSCAASGFTFSTYGMSWVRQAPGKGLVWVATINSNGGSTSYPDSVKGRFTISRDNAKNTLYLQMNSLRAEDTAVYYCARFFRFRNAMDYWGQGTLVTVSSGGGGSGGGGSGGGGSGGGGSDIQMTQSPSSLSASVGDRVTITCRTSENIYSYLAWYQQKPGKAPKFLVYNAKTLAEGVPSRFSGSGSGTDFTLTISSLQPEDFATYYCQHYYGPPTWTFGQGTKVEIK light: DIQMTQSPSSLSASVGDRVTITCRPTENIYSYLAWYQQKPGKAPKLLIYFARTLAEGVPSRFSGSGSGTDFTLTISSLQPEDFATYYCQHHYGTPWTFGGGTKVEIKRTVAAPSVFIFPPSDEQLKSGTASVVCLLNNFYPREAKVQWKVDNALQSGNSQESVTEQDSKDSTYSLSSTLTLSKADYEKHKVYACEVTHQGLSSPVTKSFNRGEC | < 0.0145 | < 1e-05 | 692000 | 0.119 | 2.93 | 0.000161 | 54900 | 0.0779
2 | BSI-502-007 (bispecific antibody, human IgG1, kappa, huC2C1A1A1-V15 IgG with an anti-TSLP scFv (VH-VL) at the N-terminus of the heavy chain; AQQ and YTE already stand in the entry) heavy: QVQLVQSGAEVKKPGASVKVSCKASGYTFTTYWMHWVRQAPGQGLEWMGVIDPSDSDTTYNQKFKGRVTMTRDTSTSTVYMELSSLRSEDTAVYYCTRSLDGYYDYWGQGTLVTVSSGGGGSGGGGSGGGGSGGGGSDIQMTQSPSSLSASVGDRVTITCRPTENIYSYLAWYQQKPGKAPKLLIYFARTLAEGVPSRFSGSGSGTDFTLTISSLQPEDFATYYCQHHYGTPWTFGGGTKVEIKGGGGSGGGGSEVQLVESGGGLVQPGGSLRLSCAASGFTFSTYGMSWVRQAPGKGLVWVATINSNGGSTSYPDSVKGRFTISRDNAKNTLYLQMNSLRAEDTAVYYCARFFRFRNAMDYWGQGTLVTVSSASTKGPSVFPLAPSSKSTSGGTAALGCLVKDYFPEPVTVSWNSGALTSGVHTFPAVLQSSGLYSLSSVVTVPSSSLGTQTYICNVNHKPSNTKVDKKVEPKSCDKTHTCPPCPAPEAQGGPSVFLFPPKPKDTLYITREPEVTCVVVDVSHEDPEVKFNWYVDGVEVHNAKTKPREEQYNSTYRVVSVLTVLHQDWLNGKEYKCQVSNKALPAPIEKTISKAKGQPREPQVYTLPPSRDELTKNQVSLTCLVKGFYPSDIAVEWESNGQPENNYKTTPPVLDSDGSFFLYSKLTVDKSRWQQGNVFSCSVMHEALHNHYTQKSLSLSPG light: DIQMTQSPSSLSASVGDRVTITCRTSENIYSYLAWYQQKPGKAPKFLVYNAKTLAEGVPSRFSGSGSGTDFTLTISSLQPEDFATYYCQHYYGPPTWTFGQGTKVEIKRTVAAPSVFIFPPSDEQLKSGTASVVCLLNNFYPREAKVQWKVDNALQSGNSQESVTEQDSKDSTYSLSSTLTLSKADYEKHKVYACEVTHQGLSSPVTKSFNRGEC | 0.0084 | 3.87e-06 | 460000 | 0.0272 | 2.22 | 0.000399 | 180000 | 0.0944
